Measurements as given in patent EP4772535A1 (Chia Tai Tianqing Pharmaceutical Group Co., Ltd., dated 2026).
Positions count from the first letter of the chain named. One block for each binder: values may come before it.

How the values were obtained:
[1] = target: T1, ROR1 naturally expressed on human tumor cell lines (A549, Jeko-1, SW620, PA-1) (human, UniProt Q01973 30-937); experiment: FACS on PA-1 cells naturally expressing ROR1
T1 construct: whole, on cells; also called cells expressing ROR1
T1 sequence (Q01973 30-937): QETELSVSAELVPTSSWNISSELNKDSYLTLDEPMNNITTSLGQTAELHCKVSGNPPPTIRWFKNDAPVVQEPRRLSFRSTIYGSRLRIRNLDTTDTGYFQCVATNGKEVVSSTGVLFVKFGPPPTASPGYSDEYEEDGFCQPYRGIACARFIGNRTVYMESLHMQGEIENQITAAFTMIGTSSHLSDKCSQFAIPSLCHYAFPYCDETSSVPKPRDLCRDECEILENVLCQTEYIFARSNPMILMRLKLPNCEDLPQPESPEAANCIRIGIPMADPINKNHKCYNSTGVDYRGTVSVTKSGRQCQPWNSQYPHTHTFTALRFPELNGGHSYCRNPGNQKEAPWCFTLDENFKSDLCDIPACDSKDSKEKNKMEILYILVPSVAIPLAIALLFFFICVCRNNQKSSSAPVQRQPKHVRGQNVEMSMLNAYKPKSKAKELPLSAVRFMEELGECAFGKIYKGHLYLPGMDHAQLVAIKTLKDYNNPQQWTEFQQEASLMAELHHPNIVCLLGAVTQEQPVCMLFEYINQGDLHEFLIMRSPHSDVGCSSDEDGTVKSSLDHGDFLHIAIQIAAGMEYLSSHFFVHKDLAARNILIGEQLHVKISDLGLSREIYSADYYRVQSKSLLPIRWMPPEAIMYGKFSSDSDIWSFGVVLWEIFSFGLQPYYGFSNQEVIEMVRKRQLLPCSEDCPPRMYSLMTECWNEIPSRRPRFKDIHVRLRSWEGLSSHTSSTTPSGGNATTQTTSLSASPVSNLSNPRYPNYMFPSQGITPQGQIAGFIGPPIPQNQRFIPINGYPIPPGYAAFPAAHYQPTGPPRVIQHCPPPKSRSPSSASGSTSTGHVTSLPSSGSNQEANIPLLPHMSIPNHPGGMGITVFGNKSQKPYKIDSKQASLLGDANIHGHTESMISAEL

[2] = target: T1, ROR1 naturally expressed on human tumor …; experiment: FACS on SW620 cells naturally expressing ROR1
[3] = target: T1, ROR1 naturally expressed on human tumor …; experiment: FACS on Jeko-1 cells naturally expressing ROR1
[4] = target: T1, ROR1 naturally expressed on human tumor …; experiment: cell-based or functional assay
[5] = target: T2, human ROR1 on stably transfected cells (NCI-H1993-ROR1, MDA-MB-468-ROR1, NCI-H1975-ROR1, 293T-ROR1-NF-kB) (human, UniProt Q01973 30-937); experiment: cell-based or functional assay
T2 sequence (Q01973 30-937 limits assumed): as the sequence (Q01973 30-937) above

[6] = target: T3, human/cynomolgus monkey ROR1 protein (Acro Biosystems, Cat. No.: RO1-H522y) (human/cynomolgus monkey, UniProt Q01973 30-403); experiment: SPR (Biacore), antibody captured on anti-hIgG CM5 chip, ROR1 protein as analyte, method of Example 5
T3 construct: Bought SPR analyte
T3 sequence (Q01973 30-403 limits assumed): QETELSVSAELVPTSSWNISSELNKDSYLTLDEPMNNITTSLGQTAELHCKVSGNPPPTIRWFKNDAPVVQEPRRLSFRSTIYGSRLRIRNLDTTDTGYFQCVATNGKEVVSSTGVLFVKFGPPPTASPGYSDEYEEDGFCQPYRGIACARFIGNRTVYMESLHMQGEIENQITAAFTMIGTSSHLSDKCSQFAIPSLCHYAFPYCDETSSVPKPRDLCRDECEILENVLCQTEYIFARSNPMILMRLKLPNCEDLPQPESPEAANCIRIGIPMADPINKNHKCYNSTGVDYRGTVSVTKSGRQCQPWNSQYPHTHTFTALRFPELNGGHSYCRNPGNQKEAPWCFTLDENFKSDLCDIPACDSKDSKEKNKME

[7] = target: T2, human ROR1 on stably transfected cells …; experiment: cell-based or functional assay; remark: listed apart in the source
[8] = target: T1, ROR1 naturally expressed on human tumor …; experiment: FACS on SW620 cells naturally expressing ROR1; remark: listed apart in the source
[9] = target: T1, ROR1 naturally expressed on human tumor …; experiment: FACS on Jeko-1 cells naturally expressing ROR1; remark: listed apart in the source
[10] = target: T1, ROR1 naturally expressed on human tumor …; experiment: FACS on PA-1 cells naturally expressing ROR1; remark: listed apart in the source
[11] = target: T1, ROR1 naturally expressed on human tumor …; experiment: FACS on PA-1 cells naturally expressing ROR1; remark: listed apart in the source
[12] = target: T1, ROR1 naturally expressed on human tumor …; experiment: FACS on Jeko-1 cells naturally expressing ROR1; remark: listed apart in the source
[13] = target: T1, ROR1 naturally expressed on human tumor …; experiment: FACS on SW620 cells naturally expressing ROR1; remark: listed apart in the source
[14] = target: T1, ROR1 naturally expressed on human tumor …; experiment: FACS on Jeko-1 cells naturally expressing ROR1; remark: listed apart in the source
[15] = target: T3, human/cynomolgus monkey ROR1 protein …; experiment: SPR (Biacore), antibody captured on anti-hIgG CM5 chip, ROR1 protein as analyte, 1:1 model
[16] = target: T1, ROR1 naturally expressed on human tumor …; experiment: FACS on A549 cells naturally expressing ROR1
[17] = target: T1, ROR1 naturally expressed on human tumor …; experiment: FACS on SW620 cells naturally expressing ROR1; remark: listed apart in the source

EC50 [1]: 0.087 nM
Top (MFI) [1]: 244000 MFI
EC50 [2]: 0.01 nM
Top (MFI) [2]: 30700 MFI
EC50 [3]: 0.012 nM
Top (MFI) [3]: 89000 MFI
ADCC reporter gene assay EC50 (nM), PA-1 target cells, recombinant Jurkat effector cells [4]: 0.06 nM
Internalization EC50 (nM), MDA-MB-468-ROR1 cells, pH-dependent endocytosis reagent, FACS [5]: 0.92 nM
Internalization EC50 (nM), NCI-H1993-ROR1 cells, pH-dependent endocytosis reagent, FACS [5]: 1.18 nM
Kd [6]: 0.197 nM
koff [6]: 0.000354 s⁻¹
kon [6]: 1.79e+06 M⁻¹ s⁻¹
Internalization EC50 (nM), NCI-H1975-ROR1 cells, pH-dependent endocytosis reagent, FACS [7]: 5.19 nM
B1: hz29H5D8-3.2 (antibody, human IgG1, kappa, V domains shown)
VH: QVQLVQSGAEVKKPGSSVKVSCKASGYTFTNYGISWVRQAPGQGLEWMGEIYPRSVNTYYSAKFKGRVTITADKSTSTAYMELSSLRSEDTAVYYCARHYYGSSLDYWGQGTLVTVSS
VL: DIQMTQSPSSLSASVGDRVTITCITSSDIEDDMNWYQQKPGKAPKLLISEGNSLRPGVPSRFSSSGYGTDFTFTISSLQPEDIATYYCLQSDNIFTFGQGTKVEIKR
notes: Humanized, human IgG1/kappa

ADCC reporter gene assay EC50 (nM), PA-1 target cells, recombinant Jurkat effector cells [4]: 0.13 nM
EC50 [11]: 0.166 nM
Top (MFI) [11]: 250000 MFI
EC50 [12]: 0.015 nM
Top (MFI) [12]: 88300 MFI
Internalization EC50 (nM), MDA-MB-468-ROR1 cells, pH-dependent endocytosis reagent, FACS [5]: 1.39 nM
Internalization EC50 (nM), NCI-H1993-ROR1 cells, pH-dependent endocytosis reagent, FACS [5]: 1.16 nM
Kd [6]: 0.527 nM
koff [6]: 0.00051 s⁻¹
kon [6]: 968000 M⁻¹ s⁻¹
EC50 [13]: 0.022 nM
Top (MFI) [13]: 30300 MFI
Internalization EC50 (nM), NCI-H1975-ROR1 cells, pH-dependent endocytosis reagent, FACS [7]: 14.9 nM
B3: hz135A2B10-1.1 (antibody, human IgG1, kappa, V domains shown)
VH: QVQLVESGGGLVQPGGSLRLSCAASGFAFSTYGMAWVRQAPGKGLEWVASIHKGGFSTYYPDNVKGRFTISRDNAKNSLYLQMNSLRAEDTAVYYCARHDWDGAMDYWGQGTLVTVSS
VL: DIQMTQSPSSLSASVGDRVTITCKASQDINSYLNWYQQKPGKAPKTLIYRANRLVDGVPSRFSGSGSGQDYTLTISSLQPEDFATYYCLQFDEFPYTFGQGTKVEIKR
notes: Humanized, human IgG1/kappa

Second part, the binder before the results:

B2: hz137G11D10-2.1 (antibody, human IgG1, kappa, V domains shown)
VH: QVQLQESGPGLVKPSQTLSLTCTVSGYSITSDYAWNWIRQHPGKGLEWIGYITYSASTSYNPSLKSRVTISRDTSKNQFSLKLSSVTAADTAVYYCARGAGTYYFDYWGQGTLVTVSS
VL: DIQMTQSPSSLSASVGDRVTITCITSTDIDEDMNWYQQKPGKAPKLLIYEDNSLRPGVPSRFSGSGYGTDFTLTISSLQPEDFATYYCLQTNNLPLTFGQGTKVEIKR
notes: Humanized, human IgG1/kappa
EC50 [8]: 0.009 nM
Top (MFI) [8]: 29500 MFI
EC50 [9]: 0.01 nM
Top (MFI) [9]: 88000 MFI
ADCC reporter gene assay EC50 (nM), PA-1 target cells, recombinant Jurkat effector cells [4]: 0.04 nM
Internalization EC50 (nM), MDA-MB-468-ROR1 cells, pH-dependent endocytosis reagent, FACS [5]: 1.44 nM
Internalization EC50 (nM), NCI-H1993-ROR1 cells, pH-dependent endocytosis reagent, FACS [5]: 1.24 nM
Kd [6]: 0.289 nM
koff [6]: 0.000792 s⁻¹
kon [6]: 2.74e+06 M⁻¹ s⁻¹
EC50 [10]: 0.053 nM
Top (MFI) [10]: 227000 MFI
Internalization EC50 (nM), NCI-H1975-ROR1 cells, pH-dependent endocytosis reagent, FACS [7]: 12.4 nM

B4: hz135A2B10-1.3 (antibody, human IgG1, kappa, V domains shown)
VH: B3 VH with G44R, A75D, A97I
VL: B3 VL
notes: Humanized, human IgG1/kappa
EC50 [11]: 0.192 nM
Top (MFI) [11]: 249000 MFI
EC50 [12]: 0.024 nM
Top (MFI) [12]: 86700 MFI
Kd [6]: 0.575 nM
koff [6]: 0.000567 s⁻¹
kon [6]: 985000 M⁻¹ s⁻¹
EC50 [13]: 0.047 nM
Top (MFI) [13]: 29900 MFI

B5: UC-961 (antibody, V domains shown)
VH: QVQLQESGPGLVKPSQTLSLTCTVSGYAFTAYNIHWVRQAPGQGLEWMGSFDPYDGGSSYNQKFKDRLTISKDTSKNQVVLTMTNMDPVDTATYYCARGWYYFDYWGHGTLVTVSS
VL: DIVMTQTPLSLPVTPGEPASISCRASKSISKYLAWYQQKPGQAPRLLIYSGSTLQSGIPPRFSGSGYGTDFTLTINNIESEDAAYYFCQQHDESPYTFGEGTKVEIK
EC50 [1]: 0.173 nM
Top (MFI) [1]: 235000 MFI
EC50 [2]: 0.025 nM
Top (MFI) [2]: 26500 MFI
EC50 [3]: 0.021 nM
Top (MFI) [3]: 91700 MFI
EC50 [8]: 0.025 nM
Top (MFI) [8]: 26500 MFI
EC50 [14]: 0.019 nM
Top (MFI) [14]: 66100 MFI
Kd [15]: 20.6 nM
koff [15]: 0.0273 s⁻¹
kon [15]: 1.33e+06 M⁻¹ s⁻¹
EC50 [9]: 0.019 nM
Top (MFI) [9]: 83200 MFI
EC50 [16]: 0.035 nM
Top (MFI) [16]: 75700 MFI
EC50 [17]: 0.024 nM
Top (MFI) [17]: 23900 MFI
ADCC reporter gene assay EC50 (nM), PA-1 target cells, recombinant Jurkat effector cells [4]: 0.27 nM
EC50 [11]: 0.127 nM
Top (MFI) [11]: 232000 MFI
EC50 [12]: 0.019 nM
Top (MFI) [12]: 83200 MFI
Internalization EC50 (nM), MDA-MB-468-ROR1 cells, pH-dependent endocytosis reagent, FACS [5]: 2.15 nM
Internalization EC50 (nM), NCI-H1993-ROR1 cells, pH-dependent endocytosis reagent, FACS [5]: 2.06 nM
Kd [6]: 1.17 nM
koff [6]: 0.0018 s⁻¹
kon [6]: 1.54e+06 M⁻¹ s⁻¹
EC50 [13]: 0.025 nM
Top (MFI) [13]: 26500 MFI
EC50 [10]: 0.127 nM
Top (MFI) [10]: 232000 MFI
Internalization EC50 (nM), NCI-H1975-ROR1 cells, pH-dependent endocytosis reagent, FACS [7]: 17.7 nM
